The record followed here is article doi:10.1101/2025.08.13.670189.

Common to all, as to test: EMSA
On the technique in general: In EMSA bound probe runs differently from free probe, usually more slowly.

Data set [1] concerns the target T1, LigR1 (Pseudomonas putida KT2440) (UniProt Q88JP0).
T1 sequence: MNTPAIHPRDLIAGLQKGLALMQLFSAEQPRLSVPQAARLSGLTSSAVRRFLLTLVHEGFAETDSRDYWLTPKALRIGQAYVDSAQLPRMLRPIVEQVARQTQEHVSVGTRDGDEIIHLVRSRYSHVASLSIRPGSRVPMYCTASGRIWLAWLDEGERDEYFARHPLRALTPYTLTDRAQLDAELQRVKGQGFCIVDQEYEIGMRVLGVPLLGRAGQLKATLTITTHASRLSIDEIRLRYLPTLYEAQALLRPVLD

Data set [2] concerns the target T2, LigR2 (Pseudomonas putida KT2440) (UniProt Q88JP8).
T2 sequence: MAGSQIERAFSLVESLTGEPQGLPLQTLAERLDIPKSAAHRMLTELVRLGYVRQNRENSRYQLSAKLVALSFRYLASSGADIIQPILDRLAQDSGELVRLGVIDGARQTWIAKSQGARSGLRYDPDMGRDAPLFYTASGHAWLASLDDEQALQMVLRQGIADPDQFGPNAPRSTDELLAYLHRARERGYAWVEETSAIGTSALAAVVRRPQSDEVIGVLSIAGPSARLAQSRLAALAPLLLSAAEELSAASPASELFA

Data set [3] deals with LigR2 (Pseudomonas putida KT2440).
Data set [4] relates to LigR1 (Pseudomonas putida KT2440).

By Kd is commonly meant the constant that tells how readily two partners part at equilibrium. Lower therefore signals tighter binding. Take “GGTAATGCTGCCGGCCCATGATGCCGGCGCCAATCAAGGCAATACGAAGGGGTGCGTTCAACAGCCTGTCCTCTTGTCATTGTTGTTATGAAATTCTGAAACCGGGTTCCAAAATTCATACTCGACAATTTAGAACCAAGTTCAGCTTTTCAGAAGAACGGGCGCAACAGACTGTGCGGTAATCGACCGGAATATTCCCTCAGGCAAACAGCTCGCTGGCGGGACTGGCCGCCGACAGCTCTTCTGC (double strand) [lig2 intergenic region probe]”: the binding entry in data set [1] is reported as “no binding”. Moreover, in data set [2], the Kd is 0.15 µM.

In data set [3], lig2 intergenic region probe returned a Kd of 0.15 µM.

As to lig1 intergenic region probe, the Kd in data set [4] was 0.22 µM; in data set [3], 21.7 µM.
